Results taken from the supplement of paper PMC10065799, “High-throughput profiling of sequence recognition by tyrosine kinases and SH2 domains using bacterial peptide display” (eLife, 2023).

Experiments:
FGFR1 = FGFR1 (UniProt P11362); experiment: phosphorylation enrichment, bacterial display (enrichment ratio); higher = better substrate or ligand; peptides without Tyr show the background
c-Src = experiment: as above
Fes = Fes (UniProt P07332); experiment: as above
c-Abl (mouse) = experiment: as above
Jak2 = Jak2 (UniProt O60674); experiment: as above
EPHB2 = EPHB2 (UniProt P29323); experiment: as above
AncSZ = experiment: as above
Hck = Hck (UniProt P08631); experiment: as above
Fyn = Fyn (UniProt P06241); experiment: as above
EPHB1 = EPHB1 (UniProt P54762); experiment: as above
MERTK = MERTK (UniProt Q12866); experiment: as above
Fer (mouse) = experiment: as above
FGFR3 = FGFR3 (UniProt P22607); experiment: as above
Grb2 SH2 = Grb2 SH2 (UniProt P62993); experiment: SH2 binding enrichment of the phosphorylated peptide, bacterial display (enrichment ratio); higher = better substrate or ligand; peptides without Tyr show the background
c-Src SH2 = experiment: as above
SHP2-C SH2 = experiment: as above
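Throughout, for SH2 binding enrichment of the phosphorylated peptide, bacterial display: peptide library displayed on the E. coli surface as eCPX fusions, selected cells deep-sequenced, score is each peptide's frequency after selection divided by its frequency in the input.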
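Throughout, for phosphorylation enrichment, bacterial display: 11-residue human phosphosite peptides and single-mutation variants displayed on the E. coli surface, counted by deep sequencing, each peptide's frequency after selection divided by its frequency in the unselected input library; frequency after pTyr selection over input frequency; kinase dosed for 20-30% of maximal phosphorylation in three min.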

Chain of MERTK (Q12866 whole entry, looked up): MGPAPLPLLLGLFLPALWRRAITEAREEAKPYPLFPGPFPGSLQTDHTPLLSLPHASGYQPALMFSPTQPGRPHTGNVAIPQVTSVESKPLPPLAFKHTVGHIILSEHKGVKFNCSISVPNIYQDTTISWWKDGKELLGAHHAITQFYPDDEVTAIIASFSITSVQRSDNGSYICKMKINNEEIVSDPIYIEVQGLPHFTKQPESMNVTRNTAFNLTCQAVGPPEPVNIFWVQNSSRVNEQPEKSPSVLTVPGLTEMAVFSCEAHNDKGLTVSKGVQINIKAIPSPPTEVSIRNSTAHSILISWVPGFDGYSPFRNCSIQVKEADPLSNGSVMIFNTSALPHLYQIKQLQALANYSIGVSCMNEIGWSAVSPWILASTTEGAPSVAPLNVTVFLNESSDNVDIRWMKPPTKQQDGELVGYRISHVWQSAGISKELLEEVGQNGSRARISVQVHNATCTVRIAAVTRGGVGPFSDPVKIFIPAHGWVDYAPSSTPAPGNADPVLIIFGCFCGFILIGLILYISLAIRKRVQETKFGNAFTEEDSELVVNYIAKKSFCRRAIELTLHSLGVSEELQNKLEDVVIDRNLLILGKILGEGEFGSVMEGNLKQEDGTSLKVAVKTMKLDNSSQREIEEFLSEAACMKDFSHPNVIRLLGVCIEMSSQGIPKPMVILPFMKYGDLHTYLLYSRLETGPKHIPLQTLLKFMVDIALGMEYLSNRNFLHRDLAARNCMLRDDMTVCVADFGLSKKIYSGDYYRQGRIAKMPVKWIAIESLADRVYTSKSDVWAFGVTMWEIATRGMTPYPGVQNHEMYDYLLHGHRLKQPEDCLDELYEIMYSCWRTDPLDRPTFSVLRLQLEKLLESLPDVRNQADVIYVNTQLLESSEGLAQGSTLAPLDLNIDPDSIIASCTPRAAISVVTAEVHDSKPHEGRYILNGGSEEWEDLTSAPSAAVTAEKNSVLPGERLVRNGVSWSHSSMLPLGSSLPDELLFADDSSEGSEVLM
Chain of Grb2 SH2 (P62993 whole entry, looked up): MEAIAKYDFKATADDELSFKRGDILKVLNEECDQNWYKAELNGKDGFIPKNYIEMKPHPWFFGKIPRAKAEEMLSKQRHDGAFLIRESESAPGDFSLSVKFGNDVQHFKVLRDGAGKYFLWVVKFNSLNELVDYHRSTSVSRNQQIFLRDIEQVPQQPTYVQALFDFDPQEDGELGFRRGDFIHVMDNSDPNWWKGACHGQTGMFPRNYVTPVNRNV
Chain of Hck (P08631 whole entry, looked up): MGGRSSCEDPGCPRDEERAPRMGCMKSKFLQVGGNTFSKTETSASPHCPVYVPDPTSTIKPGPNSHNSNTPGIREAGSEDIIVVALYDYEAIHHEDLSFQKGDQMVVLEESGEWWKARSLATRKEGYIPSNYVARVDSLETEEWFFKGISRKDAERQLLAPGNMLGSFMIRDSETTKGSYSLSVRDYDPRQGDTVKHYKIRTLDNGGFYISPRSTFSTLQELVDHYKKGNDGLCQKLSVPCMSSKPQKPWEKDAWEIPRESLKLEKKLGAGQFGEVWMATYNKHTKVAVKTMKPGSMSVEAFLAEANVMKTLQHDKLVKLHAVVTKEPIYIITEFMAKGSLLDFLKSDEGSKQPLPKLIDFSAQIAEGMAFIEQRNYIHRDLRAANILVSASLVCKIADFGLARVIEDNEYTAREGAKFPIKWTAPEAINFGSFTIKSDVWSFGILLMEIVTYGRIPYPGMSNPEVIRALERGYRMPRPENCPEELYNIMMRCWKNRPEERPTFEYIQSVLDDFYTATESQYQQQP
Chain of EPHB2 (P29323 whole entry, looked up): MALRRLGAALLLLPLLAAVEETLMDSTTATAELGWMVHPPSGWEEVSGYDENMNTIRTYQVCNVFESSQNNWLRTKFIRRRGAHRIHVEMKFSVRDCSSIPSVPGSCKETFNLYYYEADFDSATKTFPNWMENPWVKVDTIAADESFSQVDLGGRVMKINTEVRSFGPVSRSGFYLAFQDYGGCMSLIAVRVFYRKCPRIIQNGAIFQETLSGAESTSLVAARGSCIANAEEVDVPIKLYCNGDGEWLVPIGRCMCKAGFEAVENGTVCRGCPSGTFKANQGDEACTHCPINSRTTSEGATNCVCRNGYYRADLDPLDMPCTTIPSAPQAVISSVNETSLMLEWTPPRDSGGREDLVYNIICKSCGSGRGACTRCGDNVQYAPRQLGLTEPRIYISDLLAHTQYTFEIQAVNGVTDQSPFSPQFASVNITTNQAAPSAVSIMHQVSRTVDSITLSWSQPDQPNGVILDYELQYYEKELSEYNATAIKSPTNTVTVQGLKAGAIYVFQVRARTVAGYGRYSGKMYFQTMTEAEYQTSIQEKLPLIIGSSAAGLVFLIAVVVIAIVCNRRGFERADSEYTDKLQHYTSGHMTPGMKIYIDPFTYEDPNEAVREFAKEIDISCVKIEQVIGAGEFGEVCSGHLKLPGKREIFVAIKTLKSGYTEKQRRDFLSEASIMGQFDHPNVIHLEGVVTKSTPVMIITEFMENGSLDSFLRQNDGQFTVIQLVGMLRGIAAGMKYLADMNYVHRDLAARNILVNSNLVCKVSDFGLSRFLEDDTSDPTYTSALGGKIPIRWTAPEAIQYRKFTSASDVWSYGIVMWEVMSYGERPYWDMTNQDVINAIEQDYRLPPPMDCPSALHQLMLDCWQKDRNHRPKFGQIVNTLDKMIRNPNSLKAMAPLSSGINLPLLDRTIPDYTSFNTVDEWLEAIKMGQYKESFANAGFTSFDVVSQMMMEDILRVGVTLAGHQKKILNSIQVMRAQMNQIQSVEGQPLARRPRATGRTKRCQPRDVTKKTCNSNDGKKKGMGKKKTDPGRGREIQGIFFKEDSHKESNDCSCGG
Chain of Fyn (P06241 whole entry, looked up): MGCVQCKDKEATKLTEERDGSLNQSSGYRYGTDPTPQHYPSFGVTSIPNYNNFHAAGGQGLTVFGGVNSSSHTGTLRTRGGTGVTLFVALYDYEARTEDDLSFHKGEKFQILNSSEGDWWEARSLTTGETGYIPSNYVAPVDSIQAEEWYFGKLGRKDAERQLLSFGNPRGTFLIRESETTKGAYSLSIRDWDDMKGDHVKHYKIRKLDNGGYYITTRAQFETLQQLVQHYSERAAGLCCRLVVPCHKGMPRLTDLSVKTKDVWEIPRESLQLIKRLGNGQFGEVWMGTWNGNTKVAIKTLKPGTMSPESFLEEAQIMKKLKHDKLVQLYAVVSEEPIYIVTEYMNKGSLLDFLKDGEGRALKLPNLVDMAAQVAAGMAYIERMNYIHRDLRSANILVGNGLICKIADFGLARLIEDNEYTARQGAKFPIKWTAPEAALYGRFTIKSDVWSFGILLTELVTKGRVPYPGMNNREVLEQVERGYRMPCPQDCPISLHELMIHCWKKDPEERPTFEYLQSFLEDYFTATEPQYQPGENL
Chain of Fes (P07332 whole entry, looked up): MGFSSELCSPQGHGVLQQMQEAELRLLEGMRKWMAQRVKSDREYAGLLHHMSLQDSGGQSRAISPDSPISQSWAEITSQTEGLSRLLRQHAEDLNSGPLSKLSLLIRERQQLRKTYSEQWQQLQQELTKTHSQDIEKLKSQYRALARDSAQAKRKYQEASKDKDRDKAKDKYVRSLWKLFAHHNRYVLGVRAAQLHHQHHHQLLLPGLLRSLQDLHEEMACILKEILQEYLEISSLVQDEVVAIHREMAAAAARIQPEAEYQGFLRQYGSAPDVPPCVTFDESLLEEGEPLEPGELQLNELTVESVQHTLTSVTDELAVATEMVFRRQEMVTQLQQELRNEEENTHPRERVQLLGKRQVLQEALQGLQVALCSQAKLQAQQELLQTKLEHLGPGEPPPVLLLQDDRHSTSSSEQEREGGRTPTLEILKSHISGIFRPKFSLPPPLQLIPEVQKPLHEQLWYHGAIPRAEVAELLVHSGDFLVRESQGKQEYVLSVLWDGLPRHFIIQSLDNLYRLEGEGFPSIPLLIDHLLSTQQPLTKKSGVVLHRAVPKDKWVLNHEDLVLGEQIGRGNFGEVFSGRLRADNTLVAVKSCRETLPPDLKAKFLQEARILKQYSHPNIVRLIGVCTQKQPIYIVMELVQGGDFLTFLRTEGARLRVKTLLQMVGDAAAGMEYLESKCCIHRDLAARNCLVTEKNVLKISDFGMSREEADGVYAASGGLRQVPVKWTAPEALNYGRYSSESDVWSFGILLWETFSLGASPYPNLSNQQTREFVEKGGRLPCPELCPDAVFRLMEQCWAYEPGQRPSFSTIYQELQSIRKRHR
Chain of FGFR1 (P11362 whole entry, looked up): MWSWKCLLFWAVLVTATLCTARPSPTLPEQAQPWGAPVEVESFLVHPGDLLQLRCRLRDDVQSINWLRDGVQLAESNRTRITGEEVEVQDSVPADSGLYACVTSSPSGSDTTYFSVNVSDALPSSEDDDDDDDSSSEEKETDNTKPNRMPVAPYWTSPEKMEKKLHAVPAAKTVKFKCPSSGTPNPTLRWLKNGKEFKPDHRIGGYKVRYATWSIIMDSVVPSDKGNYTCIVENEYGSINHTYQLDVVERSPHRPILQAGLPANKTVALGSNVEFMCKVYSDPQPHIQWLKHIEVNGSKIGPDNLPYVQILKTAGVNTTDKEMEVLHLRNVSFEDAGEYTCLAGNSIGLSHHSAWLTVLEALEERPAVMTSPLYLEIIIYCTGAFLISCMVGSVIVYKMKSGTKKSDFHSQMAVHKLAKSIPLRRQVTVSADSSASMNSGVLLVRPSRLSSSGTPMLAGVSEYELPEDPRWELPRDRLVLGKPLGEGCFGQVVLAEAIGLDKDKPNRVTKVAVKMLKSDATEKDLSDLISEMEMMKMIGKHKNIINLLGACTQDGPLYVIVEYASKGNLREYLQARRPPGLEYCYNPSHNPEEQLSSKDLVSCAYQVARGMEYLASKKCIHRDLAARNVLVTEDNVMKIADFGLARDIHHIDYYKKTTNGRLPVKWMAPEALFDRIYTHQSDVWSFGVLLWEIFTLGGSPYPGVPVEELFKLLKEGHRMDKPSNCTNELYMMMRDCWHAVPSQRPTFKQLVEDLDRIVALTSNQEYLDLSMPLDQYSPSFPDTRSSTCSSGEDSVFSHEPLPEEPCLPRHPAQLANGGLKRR

Row | Sequence | phosphorylation enrichment (FGFR1) | phosphorylation enrichment (c-Src) | phosphorylation enrichment (Fes) | phosphorylation enrichment (c-Abl (mouse)) | phosphorylation enrichment (Jak2) | phosphorylation enrichment (EPHB2) | phosphorylation enrichment (AncSZ) | phosphorylation enrichment (Hck) | phosphorylation enrichment (Fyn) | phosphorylation enrichment (EPHB1) | phosphorylation enrichment (MERTK) | phosphorylation enrichment (Fer (mouse)) | phosphorylation enrichment (FGFR3) | SH2 binding enrichment (Grb2 SH2) | SH2 binding enrichment (c-Src SH2) | SH2 binding enrichment (SHP2-C SH2)
1 | KGPNVCKKTVN [REV3L_Y1156_Y1156C] | 0.529 | 0.54 | 0.863 | 1.13 | 0.944 | 0.525 | 0.644 | 0.516 | 0.378 | 0.457 | 0.415 | 0.376 | 0.741 | 1.38 | 1.19 | 1.48
2 | KGPNVYKKTVN [REV3L_Y1156] | 0.448 | 0.546 | 0.581 | 0.492 | 0.5 | 0.31 | 0.456 | 0.414 | 0.313 | 0.307 | 0.362 | 0.429 | 0.391 | 0.633 | 0.529 | 0.606
3 | KGSEGYLAAIY [NF1_Y2503_T2507I] | 0.572 | 0.898 | 0.912 | 0.563 | 0.673 | 0.561 | 0.78 | 1.09 | 0.8 | 0.525 | 0.485 | 0.493 | 0.552 | 0.911 | 0.54 | 0.606
4 | KGSLPYNLILD [PKD1L2_Y406] | 0.552 | 0.542 | 0.713 | 0.743 | 0.687 | 0.418 | 0.695 | 0.44 | 0.438 | 0.468 | 0.421 | 0.488 | 0.616 | 0.75 | 3.69 | 0.71
5 | KGVDRYNPENL [EIF3K_Y21_I18V] | 0.308 | 0.397 | 0.466 | 0.392 | 0.428 | 0.648 | 0.502 | 0.437 | 0.415 | 0.35 | 0.402 | 0.311 | 0.372 | 0.643 | 0.465 | 0.592
6 | KICDWYQRQRP [KRT14_Y151_R148C] | 0.466 | 0.48 | 0.9 | 0.555 | 0.651 | 0.602 | 1 | 0.407 | 0.447 | 0.398 | 0.511 | 0.513 | 0.598 | 0.854 | 0.616 | 0.75
7 | KILGRYYETGS [PAX2_Y72] | 0.507 | 0.504 | 0.758 | 0.636 | 0.952 | 0.586 | 0.641 | 0.486 | 0.437 | 0.5 | 0.548 | 0.418 | 0.523 | 0.951 | 1.21 | 0.6
8 | KILTHYKRPHT [KMT2D_Y5349] | 0.456 | 0.379 | 0.621 | 0.579 | 0.439 | 0.42 | 0.495 | 0.349 | 0.393 | 0.359 | 0.365 | 0.445 | 0.515 | 1.76 | 1.56 | 1.27
9 | KIPGRYFETGS [PAX2_Y72_L69P_YF] | 0.471 | 0.521 | 1.31 | 0.633 | 0.783 | 0.546 | 0.604 | 0.396 | 0.466 | 0.382 | 0.464 | 0.427 | 0.531 | 1.37 | 0.606 | 0.726
10 | KIVATYRLCSE [DNAH3_Y1586] | 0.571 | 0.535 | 1.28 | 0.714 | 1.02 | 0.626 | 1.06 | 0.725 | 0.463 | 0.631 | 0.565 | 0.487 | 0.664 | 0.685 | 0.512 | 0.778
11 | KKLAEYGPQGR [CLCA1_Y147] | 0.364 | 0.358 | 0.519 | 0.473 | 0.441 | 0.366 | 0.428 | 0.36 | 0.408 | 0.376 | 0.379 | 0.316 | 0.361 | 0.901 | 0.546 | 0.631
12 | KKLEVYQSIAD [MYBPC3_Y548] | 0.499 | 0.798 | 0.882 | 0.55 | 0.857 | 0.529 | 0.878 | 1.08 | 0.725 | 0.557 | 0.488 | 0.502 | 0.75 | 0.792 | 1.47 | 1.18
13 | KKMKCYHVGKV [HARS2_Y151_R150C] | 0.395 | 0.408 | 0.723 | 0.627 | 0.588 | 0.431 | 0.579 | 0.383 | 0.317 | 0.444 | 0.423 | 0.356 | 0.552 | 1.35 | 1.12 | 0.954
14 | KKYPDYIQIAM [SGMS2_Y59] | 9.52 | 0.483 | 0.949 | 0.729 | 1.46 | 1.69 | 1.45 | 0.581 | 0.448 | 10 | 0.435 | 0.52 | 5.93 | 1.04 | 0.644 | 0.787
15 | KLLPEYPGVLS [DHFR2_Y163] | 0.379 | 0.458 | 0.657 | 0.497 | 0.598 | 0.399 | 0.685 | 0.491 | 0.46 | 0.349 | 0.385 | 0.493 | 0.564 | 0.952 | 0.574 | 0.809
16 | KLVQLYDVCTK [BTK_Y461_G462D] | 0.58 | 1.56 | 1.03 | 1.25 | 0.79 | 11.7 | 0.994 | 4.92 | 1.37 | 12.1 | 7.27 | 2.56 | 0.742 | 0.984 | 0.881 | 0.865
17 | KNDSNYVVKGN [KIT_Y823] | 0.55 | 0.346 | 0.635 | 0.568 | 0.482 | 0.318 | 0.539 | 0.406 | 0.37 | 0.303 | 0.382 | 0.323 | 0.447 | 0.814 | 0.546 | 0.659

Row | Sequence | phosphorylation enrichment (FGFR1) | phosphorylation enrichment (c-Src) | phosphorylation enrichment (Fes) | phosphorylation enrichment (c-Abl (mouse)) | phosphorylation enrichment (Jak2) | phosphorylation enrichment (EPHB2) | phosphorylation enrichment (AncSZ) | phosphorylation enrichment (Hck) | phosphorylation enrichment (Fyn) | phosphorylation enrichment (EPHB1) | phosphorylation enrichment (MERTK) | phosphorylation enrichment (Fer (mouse)) | phosphorylation enrichment (FGFR3) | SH2 binding enrichment (Grb2 SH2) | SH2 binding enrichment (c-Src SH2) | SH2 binding enrichment (SHP2-C SH2)
18 | KNKNRCKNILP [PTPN11_Y279_Y279C] | 0.617 | 0.565 | 0.942 | 1.37 | 1.48 | 0.503 | 0.765 | 0.481 | 0.374 | 0.448 | 0.581 | 0.488 | 0.959 | 0.861 | 0.892 | 0.598
19 | KNNDGYTDFAE [MCFD2_Y135_I136T_YF] | 0.559 | 0.449 | 1.07 | 0.731 | 0.882 | 0.594 | 0.999 | 0.529 | 0.522 | 0.578 | 0.42 | 0.529 | 0.732 | 0.869 | 5.75 | 0.8
20 | KNNSIYVLANI [VNN1_Y134_V136L] | 0.947 | 1.58 | 1.24 | 1.05 | 1.16 | 0.668 | 1.17 | 1.15 | 1.14 | 0.793 | 1.95 | 2.7 | 1.08 | 1.14 | 0.796 | 1.67
21 | KNRDVSSSDFF [USP24_Y2134_Y2134S_YF] | 0.365 | 0.399 | 0.71 | 0.583 | 0.641 | 0.393 | 0.701 | 0.425 | 0.432 | 0.444 | 0.436 | 0.427 | 0.539 | 0.882 | 0.424 | 0.635
22 | KPPFSYNALIR [FOXG1_Y186_M191R] | 0.505 | 0.504 | 0.807 | 0.565 | 0.618 | 0.55 | 0.695 | 0.53 | 0.482 | 0.478 | 0.477 | 0.446 | 0.519 | 1.01 | 0.742 | 0.956
23 | KQRSDYARELE [MYH3_Y1140] | 0.331 | 0.362 | 0.789 | 0.625 | 0.596 | 0.435 | 0.636 | 0.393 | 0.417 | 0.38 | 0.38 | 0.358 | 0.481 | 1.01 | 0.512 | 0.859
24 | KQVEQYMSFHK [HCN1_Y417] | 0.49 | 1.45 | 0.754 | 0.691 | 0.687 | 0.555 | 0.833 | 3.62 | 1.49 | 0.528 | 0.384 | 0.413 | 0.54 | 0.782 | 0.524 | 0.583
25 | KRIETYFSKNF [PLP1_Y50_L46R_YF] | 0.516 | 0.467 | 0.874 | 0.752 | 0.723 | 0.417 | 0.703 | 0.47 | 0.499 | 0.43 | 0.395 | 0.46 | 0.532 | 0.949 | 0.559 | 0.51
26 | KRISCYEASYQ [PFKFB3_Y194] | 0.447 | 0.467 | 0.947 | 0.74 | 0.749 | 0.484 | 0.896 | 0.529 | 0.452 | 0.522 | 0.493 | 0.494 | 0.656 | 0.67 | 0.667 | 0.582
27 | KRLDGYVLEGR [IGSF9_Y656] | 0.43 | 0.321 | 0.67 | 0.496 | 0.426 | 0.417 | 0.585 | 0.447 | 0.441 | 0.356 | 0.385 | 0.323 | 0.44 | 0.791 | 0.856 | 0.518
28 | KSSDVYVSYDC [SORL1_Y136_Y141C] | 1.52 | 3.82 | 1.13 | 0.772 | 0.934 | 0.993 | 1.22 | 1.87 | 4.79 | 0.866 | 0.611 | 0.663 | 1.35 | 0.959 | 0.766 | 0.583
29 | KTDKKYLMIKE [BAG3_Y451_E455K] | 0.423 | 0.392 | 0.877 | 0.616 | 0.636 | 0.439 | 0.64 | 0.368 | 0.368 | 0.426 | 0.408 | 0.373 | 0.526 | 0.897 | 0.499 | 0.836
30 | KTDVRYRSLGG [DYSF_Y1858_H1857R] | 0.372 | 0.368 | 0.472 | 0.473 | 0.553 | 0.312 | 0.446 | 0.314 | 0.35 | 0.333 | 0.346 | 0.414 | 0.472 | 0.898 | 0.383 | 0.634
31 | KTTGGYAGGLS [KRT8_Y419_S417G] | 0.454 | 0.583 | 0.592 | 0.649 | 0.701 | 0.473 | 0.506 | 0.454 | 0.413 | 0.34 | 0.523 | 0.419 | 0.422 | 0.853 | 0.416 | 0.575
32 | KVDKEYEVRVR [GHR_Y226] | 0.52 | 0.41 | 0.864 | 0.579 | 0.587 | 0.547 | 0.711 | 0.488 | 0.407 | 0.459 | 0.361 | 0.396 | 0.473 | 1.05 | 0.589 | 1.06
33 | KVPELYEIHKE [BCR_Y554] | 0.593 | 0.603 | 1.08 | 0.714 | 0.766 | 0.868 | 1.03 | 0.853 | 0.631 | 0.93 | 0.619 | 0.976 | 0.817 | 0.996 | 0.701 | 0.751
